These results are taken from patent US20050203007A1 (REGENTS OF THE UNIVERSITY OF MICHIGAN, published 2005).

This assay has as its target T1, secreted, soluble furin (human, UniProt P09958 108-715, limits assumed).
T1 construct: Secreted, soluble construct; also called human furin
Kind of assay: affinity resin, eglin immobilized on Reacti-Gel 6X. As for the experimental part: Resins were synthesized by immobilizing purified M4R1-eglin and R4R1-eglin onto Reacti-Gel 6X (Pierce) using the manufacturer's protocol.
The resins were then used to test binding and elution of furin from these resins. […] Enzyme was eluted with 20 mM NaMES (pH 6.0) with approximately 90% yield. Furin binding capacity to the R4R1-eglin Resin was 10-fold higher relative to the M4R1-eglin Resin, but furin was not eluted by dropping pH. Instead, furin bound to the R4R1-eglin column was eluted with buffer containing 2 mM EDTA. 5 mM CaCl₂ was added to restore activity and 85% of the furin activity was recovered. (Unit definition: Release of 1 pmol of AMC/min in a reaction containing […] Boc-Arg-Val-Arg-Arg-MCA, 1 mM CaCl₂ and 20 mM NaMES (pH 7.0) at 37° C.

T1 sequence (P09958 108-715 limits assumed): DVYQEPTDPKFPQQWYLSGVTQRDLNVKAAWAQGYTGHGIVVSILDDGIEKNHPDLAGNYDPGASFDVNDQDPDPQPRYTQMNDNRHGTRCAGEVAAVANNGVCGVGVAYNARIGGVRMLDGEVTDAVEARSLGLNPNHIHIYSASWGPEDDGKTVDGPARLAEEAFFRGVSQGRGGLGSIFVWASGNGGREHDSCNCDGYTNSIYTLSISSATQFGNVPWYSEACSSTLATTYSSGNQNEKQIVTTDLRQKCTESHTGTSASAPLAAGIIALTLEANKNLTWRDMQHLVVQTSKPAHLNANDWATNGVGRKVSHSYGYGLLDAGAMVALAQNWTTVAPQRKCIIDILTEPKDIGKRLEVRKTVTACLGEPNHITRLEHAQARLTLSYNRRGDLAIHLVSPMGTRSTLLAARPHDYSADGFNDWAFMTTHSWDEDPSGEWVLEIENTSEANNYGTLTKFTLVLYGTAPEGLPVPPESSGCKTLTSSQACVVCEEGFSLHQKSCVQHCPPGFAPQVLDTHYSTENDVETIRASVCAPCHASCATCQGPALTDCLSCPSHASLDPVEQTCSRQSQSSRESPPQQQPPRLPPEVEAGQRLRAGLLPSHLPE

B1: R4R1-eglin (designed binder)
chain: SMGSELKSFPEVVGKTVDQAREYFTLHYPQYDVYFLPEGSRVTRDLRYNRVRVFYNPGTNVVNHVPHVG
notes: N-terminal Met removed; also called Tyr49-R4R1-; D33Y49
For the molecule B1, the “furin binding capacity of the resin relative to the M4R1-eglin Resin” value worked out at 10 fold.
